# T1: GSTcle3HV3
# T1 chain: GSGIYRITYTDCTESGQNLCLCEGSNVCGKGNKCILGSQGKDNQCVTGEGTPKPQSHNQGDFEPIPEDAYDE
# Columns and labels:
# [1] = tested on: HSACHV3
# [2] = tested on: C-terminally His-tagged hirudin variant 3 (HV3)
# [3] = tested on: HSAHV3
# [4] = biological target: AGPCHV3 (UniProt P02763)
# [5] = biological target: AGPCHV3, P02763
# [6] = biological target: T1, GSTcle3HV3
# [7] = biological target: HSACHV3; remark: listed apart in the source
# Sequence of AGPCHV3, P02763 (P02763 whole entry, looked up): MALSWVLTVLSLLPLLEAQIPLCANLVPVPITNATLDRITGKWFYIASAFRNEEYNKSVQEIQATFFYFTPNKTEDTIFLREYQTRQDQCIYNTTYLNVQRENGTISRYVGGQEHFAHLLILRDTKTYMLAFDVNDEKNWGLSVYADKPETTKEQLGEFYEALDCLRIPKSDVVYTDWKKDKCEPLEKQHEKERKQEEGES
# Sequence of C-terminally His-tagged hirudin variant 3 (HV3) (chain, as listed by the source mutant): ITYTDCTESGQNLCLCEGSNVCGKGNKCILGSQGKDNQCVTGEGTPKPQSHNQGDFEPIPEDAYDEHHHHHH
Molecule,"rate of thrombin cleavage of a chromogenic substrate, fusion protein 376 nM without plasmin [1]","rate of thrombin-mediated chromogenic substrate cleavage, starting value for 1500 nM HSACHV3 [1]","rate of thrombin-mediated chromogenic substrate cleavage, end value after 1500 nM HSACHV3 was combined with 600 nM plasmin (HV3 released) [2]",% thrombin activity (chromogenic substrate) after reaction of HSAHV3 with plasmin [3],"rate of thrombin cleavage of a chromogenic substrate, fusion protein 376 nM without plasmin [4]","time- and plasmin-dependent cleavage, Coomassie-stained SDS gel (4000 nM AGPCHV3, 600 nM plasmin) [5]",cleavage pattern by SDS-PAGE after plasmin digestion [6],"cleavage by plasmin, SDS-PAGE and autoradiography [7]","time- and plasmin-dependent cleavage, Coomassie-stained SDS gel (1500 nM HSACHV3, 600 nM plasmin) [7]"
human α-thrombin,"In the absence of plasmin, neither fusion protein had substantial effects upon the thrombin activity",The former reduced the rate of thrombin-mediated chromogenic substrate cleavage from 89.9% to 5.5%,The former reduced the rate of thrombin-mediated chromogenic substrate cleavage from 89.9% to 5.5%,thrombin inhibition was unaffected by the presence of HSAHV3 following reaction with plasmin,"In the absence of plasmin, neither fusion protein had substantial effects upon the thrombin activity",–,–,–,–
plasmin (protein) KVYLSECKTGNGKNYRGTMSKTKNGITCQKWSSTSPHRPRFSPATHPSEGLEENYCRNPDNDPQGPWCYTTDPEKRYDYCDILECEEECMHCSGENYDGKISKTMSGLECQAWDSQSPHAHGYIPSKFPNKNLKKNYCRNPDRELRPWCFTTDPNKRWELCDIPRCTTPPPSSGPTYQCLKGTGENYRGNVAVTVSGHTCQHWSAQTPHTHNRTPENFPCKNLDENYCRNPDGKRAPWCHTTNSQVRWEYCKIPSCDSSPVSTEQLAPTAPPELTPVVQDCYHGDGQSYRGTSSTTTTGKKCQSWSSMTPHRHQKTPENYPNAGLTMNYCRNPDADKGPWCFTTDPSVRWEYCNLKKCSGTEASVVAPPPVVLLPDVETPSEEDCMFGNGKGYRGKRATTVTGTPCQDWAAQEPHRHSIFTPETNPRAGLEKNYCRNPDGDVGGPWCYTTNPRKLYDYCDVPQCAAPSFDCGKPQVEPKKCPGRVVGGCVAHPHSWPWQVSLRTRFGMHFCGGTLISPEWVLTAAHCLEKSPRPSSYKVILGAHQEVNLEPHVQEIEVSRLFLEPTRKDIALLKLSSPAVITDKVIPACLPSPNYVVADRTECFITGWGETQGTFGAGLLKEAQLPVIENKVCNRYEFLNGRVQSTELCAGHLAGGTDSCQGDSGGPLVCFEKDKYILQGVTSWGLGCARPNKPGVYVRVSRFVTWIEGVMRNN,–,–,–,–,–,"A time- and plasmin-dependent cleavage pattern of both proteins is shown, yielding a single product for HSACHV3 and two products for AGPCHV3","plasmin-dependent polypeptide species were detected, one of which co-migrated with unfused GST, and the other, which migrated slightly more rapidly than Pichia pastoris-derived recombinant hexahisitidinylated HV3","HSACHV3 was cleaved by plasmin over time, reaching near complete conversion","A time- and plasmin-dependent cleavage pattern of both proteins is shown, yielding a single product for HSACHV3 and two products for AGPCHV3"
